What was measured:
Experiment in all cases: BLI
[1] = biological target: Recombinant histidine-tagged Ewing Sarcoma Breakpoint Region 1 (EWSR1) protein (UniProt Q01844)
CHIKV nsP2 = CHIKV nsP2 (Chikungunya virus; strain of the nsP2 …, UniProt Q8JUX6 536-1333)
EWSR1 = EWSR1 (UniProt Q01844 1-656)
Sequence of EWSR1 (Q01844 whole entry): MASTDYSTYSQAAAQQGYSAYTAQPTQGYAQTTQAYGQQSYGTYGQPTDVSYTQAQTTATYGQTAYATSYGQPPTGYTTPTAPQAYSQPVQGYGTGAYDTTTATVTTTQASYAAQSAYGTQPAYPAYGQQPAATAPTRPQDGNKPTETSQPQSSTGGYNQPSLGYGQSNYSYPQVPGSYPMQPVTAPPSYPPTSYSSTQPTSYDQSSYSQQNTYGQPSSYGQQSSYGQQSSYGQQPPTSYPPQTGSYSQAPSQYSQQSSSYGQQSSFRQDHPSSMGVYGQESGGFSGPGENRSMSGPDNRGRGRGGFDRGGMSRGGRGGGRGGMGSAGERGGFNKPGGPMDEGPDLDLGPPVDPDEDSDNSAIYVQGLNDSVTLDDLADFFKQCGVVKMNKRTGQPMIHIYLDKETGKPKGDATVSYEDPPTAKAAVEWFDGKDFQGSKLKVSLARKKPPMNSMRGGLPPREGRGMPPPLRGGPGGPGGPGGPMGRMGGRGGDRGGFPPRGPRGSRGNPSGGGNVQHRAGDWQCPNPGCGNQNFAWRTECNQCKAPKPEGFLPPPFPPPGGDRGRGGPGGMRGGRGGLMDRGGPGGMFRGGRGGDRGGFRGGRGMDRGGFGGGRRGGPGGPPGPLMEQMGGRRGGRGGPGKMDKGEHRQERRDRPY

Sequence of Recombinant histidine-tagged Ewing Sarcoma Breakpoint Region 1 (EWSR1) protein (Q01844 whole entry): as above
Sequence of Chikungunya virus non-structural protein 2 (CHIKV nsP2), full-length recombinant (Q8JUX6 536-1333): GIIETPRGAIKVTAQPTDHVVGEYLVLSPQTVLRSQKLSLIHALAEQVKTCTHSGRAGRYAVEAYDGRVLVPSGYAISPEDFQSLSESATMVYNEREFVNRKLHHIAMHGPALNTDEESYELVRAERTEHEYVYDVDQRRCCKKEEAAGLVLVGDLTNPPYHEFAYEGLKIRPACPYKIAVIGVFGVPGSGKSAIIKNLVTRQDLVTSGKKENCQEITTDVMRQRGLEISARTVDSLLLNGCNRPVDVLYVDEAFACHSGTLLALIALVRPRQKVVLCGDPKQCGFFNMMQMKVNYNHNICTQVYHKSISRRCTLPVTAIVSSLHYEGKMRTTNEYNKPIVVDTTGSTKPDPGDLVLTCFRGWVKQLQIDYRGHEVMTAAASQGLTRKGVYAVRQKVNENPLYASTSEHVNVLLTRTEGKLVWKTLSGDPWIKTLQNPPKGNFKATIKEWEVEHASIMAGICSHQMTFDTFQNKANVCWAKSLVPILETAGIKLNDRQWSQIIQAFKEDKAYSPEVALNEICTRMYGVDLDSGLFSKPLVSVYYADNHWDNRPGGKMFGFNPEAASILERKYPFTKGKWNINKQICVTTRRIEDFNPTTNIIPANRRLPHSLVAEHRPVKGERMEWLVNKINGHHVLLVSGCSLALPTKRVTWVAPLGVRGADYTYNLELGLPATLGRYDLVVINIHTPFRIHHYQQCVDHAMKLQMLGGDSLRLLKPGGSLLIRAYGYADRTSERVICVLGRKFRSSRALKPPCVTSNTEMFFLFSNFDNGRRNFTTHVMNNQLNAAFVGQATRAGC
Sequence of CHIKV nsP2 (Q8JUX6 536-1333): as above

Molecule | Kd [1] [nM] | Kd (CHIKV nsP2) [nM] | Kd (EWSR1) [nM]
Chikungunya virus non-structural protein 2 (CHIKV nsP2), full-length recombinant (from UniProt Q8JUX6) (enzyme) | 716 |  | 
CCGAACCCACAGGGACGUAGGAGAUGUUAUUUUGUUUUUAAUAUUUC (ssRNA) [3NCR48] |  | 92.9 ± 1.6 | 91.4 ± 0.37

Source: doi:10.64898/2025.12.16.694598
